Measurements reported in PMC3361975.

B1: PTDH ortholog from R. metallidurans (Cupriavidus metallidurans CH34) (protein)
chain: MNHRKIVVTQPVHEEVLRKLQAEGEVIMNPGPDPWSPSQLREYLVDADAMMAFMTDSVTKESLLNAPRLKTISCALKGYDNFDLRACAQAGVSVTFVPDLLTEPTAELAIGLAIAAGRNVLQGDAATRAGYSGWRPALYGTGLHGSVASVIGLGKVGQAILARLAGFGCARLLGVDPSVRLDQVELVTLDEAVSTSDYVFLAVPLVSDTRHLVDSRMLQLSKKGQILVNVGRGSVVDERAVVDALANEQLGAYAADVYEMEDWLLPDRPREIHPGLTNNARTVLTPHIGSAVRRVRFEIEMRAAENLVRSLRGESLSDVAVEASAAA
B2: wt-PTDH (P. stutzeri) (Stutzerimonas stutzeri) (protein)
chain: MLPKLVITHRVHDEILQLLAPHCELMTNQTDSTLTREEILRRCRDAQAMMAFMPDRVDADFLQACPELRVVGCALKGFDNFDVDACTARGVWLTFVPDLLTVPTAELAIGLAVGLGRHLRAADAFVRSGEFQGWQPQFYGTGLDNATVGILGMGAIGLAMADRLQGWGATLQYHEAKALDTQTEQRLGLRQVACSELFASSDFILLALPLNADTQHLVNAELLALVRPGALLVNPCRGSVVDEAAVLAALERGQLGGYAADVFEMEDWARADRPRLIDPALLAHPNTLFTPHIGSAVRAVRLEIERCAAQNIIQVLAGARPINAANRLPKAEPAAC
B3: PTDH ortholog from N. punctiforme (Nostoc punctiforme PCC 73102) (protein)
chain: MKPKVVITHWVHPEIITNLSEYCEVVANPTRETLPREEILKLAQDAEALMVFMPDRIDEAFLKACPKLKIIAGALKGYDNFDVDACTRQGIWFTIVPSLLAVPTAELTIGLIIGLARQMLLGDRLIRQGTFAGWRPHLYGMGLANRTLGIVGMGSLGQALAQRLSSFEMNLIYTDAIPLPKEKAAAWCLSQVSLDTLLATSDFVVLMVPLQPETFHLINEKSLARMKPGSFLINPCRGSVVDEQAVSDALASGHLAGYAADVFELEDWARSDRPSKIPPSLLEKQDQTFFTPHLGSAVDDLRYDIAIEASQNILQVLQGHSPQGAINCPS

Tests used:
purified protein [1] = substrate: NC(=O)c1ccc[n+]([C@@H]2O[C@H](COP(=O)(O)OP(=O)(O)OC[C@H]3O[C@@H](n4cnc5c(N)ncnc54)[C@H](O)[C@@H]3O)[C@@H](O)[C@H]2O)c1; experiment: purified protein; conditions: co-substrate phosphite, 100 mM MOPS pH 7.25, 30 °C
purified protein [2] = substrate: O=[PH](O)O; experiment: purified protein; conditions: co-substrate NAD+, 100 mM MOPS pH 7.25, 30 °C

Row | Protein | Km (purified protein [1]) | kcat (purified protein [1]) | Km (purified protein [2]) | kcat (purified protein [2])
1 | B1 | 4.5 (0.9) μM | 6.83 (0.43) s^-1 | 54.9 (6.8) μM | 6.83 (0.43) s^-1
2 | B2 | 52.2 (3.3) μM | 6.57 (0.03) s^-1 | 81.1 (1.6) μM | 6.57 (0.03) s^-1
3 | B3 | 19.4 (1.6) μM | 3.36 (0.03) s^-1 | 25.4 (1.2) μM | 3.36 (0.03) s^-1
